# Experimental data: IntAct's records for PubMed 26635368
# B1: Sprouty-related, EVH1 domain-containing protein 1 (Homo sapiens), Q7Z699 (parent)
# chain: MSEETATSDNDNSYARVRAVVMTRDDSSGGWLPLGGSGLSSVTVFKVPHQEENGCADFFIRGERLRDKMVVLECMLKKDLIYNKVTPTFHHWKIDDKKFGLTFQSPADARAFDRGIRRAIEDISQGCPESKNEAEGADDLQANEEDSSSSLVKDHLFQQETVVTSEPYRSSNIRPSPFEDLNARRVYMQSQANQITFGQPGLDIQSRSMEYVQRQISKECGSLKSQNRVPLKSIRHVSFQDEDEIVRINPRDILIRRYADYRHPDMWKNDLERDDADSSIQFSKPDSKKSDYLYSCGDETKLSSPKDSVVFKTQPSSLKIKKSKRRKEDGERSRCVYCQERFNHEENVRGKCQDAPDPIKRCIYQVSCMLCAESMLYHCMSDSEGDFSDPCSCDTSDDKFCLRWLALVALSFIVPCMCCYVPLRMCHRCGEACGCCGGKHKAAG
# Variants of: B1
# Details: with nf1_human NF1, P21359
# Sequence of nf1_human NF1, P21359 (P21359 whole entry): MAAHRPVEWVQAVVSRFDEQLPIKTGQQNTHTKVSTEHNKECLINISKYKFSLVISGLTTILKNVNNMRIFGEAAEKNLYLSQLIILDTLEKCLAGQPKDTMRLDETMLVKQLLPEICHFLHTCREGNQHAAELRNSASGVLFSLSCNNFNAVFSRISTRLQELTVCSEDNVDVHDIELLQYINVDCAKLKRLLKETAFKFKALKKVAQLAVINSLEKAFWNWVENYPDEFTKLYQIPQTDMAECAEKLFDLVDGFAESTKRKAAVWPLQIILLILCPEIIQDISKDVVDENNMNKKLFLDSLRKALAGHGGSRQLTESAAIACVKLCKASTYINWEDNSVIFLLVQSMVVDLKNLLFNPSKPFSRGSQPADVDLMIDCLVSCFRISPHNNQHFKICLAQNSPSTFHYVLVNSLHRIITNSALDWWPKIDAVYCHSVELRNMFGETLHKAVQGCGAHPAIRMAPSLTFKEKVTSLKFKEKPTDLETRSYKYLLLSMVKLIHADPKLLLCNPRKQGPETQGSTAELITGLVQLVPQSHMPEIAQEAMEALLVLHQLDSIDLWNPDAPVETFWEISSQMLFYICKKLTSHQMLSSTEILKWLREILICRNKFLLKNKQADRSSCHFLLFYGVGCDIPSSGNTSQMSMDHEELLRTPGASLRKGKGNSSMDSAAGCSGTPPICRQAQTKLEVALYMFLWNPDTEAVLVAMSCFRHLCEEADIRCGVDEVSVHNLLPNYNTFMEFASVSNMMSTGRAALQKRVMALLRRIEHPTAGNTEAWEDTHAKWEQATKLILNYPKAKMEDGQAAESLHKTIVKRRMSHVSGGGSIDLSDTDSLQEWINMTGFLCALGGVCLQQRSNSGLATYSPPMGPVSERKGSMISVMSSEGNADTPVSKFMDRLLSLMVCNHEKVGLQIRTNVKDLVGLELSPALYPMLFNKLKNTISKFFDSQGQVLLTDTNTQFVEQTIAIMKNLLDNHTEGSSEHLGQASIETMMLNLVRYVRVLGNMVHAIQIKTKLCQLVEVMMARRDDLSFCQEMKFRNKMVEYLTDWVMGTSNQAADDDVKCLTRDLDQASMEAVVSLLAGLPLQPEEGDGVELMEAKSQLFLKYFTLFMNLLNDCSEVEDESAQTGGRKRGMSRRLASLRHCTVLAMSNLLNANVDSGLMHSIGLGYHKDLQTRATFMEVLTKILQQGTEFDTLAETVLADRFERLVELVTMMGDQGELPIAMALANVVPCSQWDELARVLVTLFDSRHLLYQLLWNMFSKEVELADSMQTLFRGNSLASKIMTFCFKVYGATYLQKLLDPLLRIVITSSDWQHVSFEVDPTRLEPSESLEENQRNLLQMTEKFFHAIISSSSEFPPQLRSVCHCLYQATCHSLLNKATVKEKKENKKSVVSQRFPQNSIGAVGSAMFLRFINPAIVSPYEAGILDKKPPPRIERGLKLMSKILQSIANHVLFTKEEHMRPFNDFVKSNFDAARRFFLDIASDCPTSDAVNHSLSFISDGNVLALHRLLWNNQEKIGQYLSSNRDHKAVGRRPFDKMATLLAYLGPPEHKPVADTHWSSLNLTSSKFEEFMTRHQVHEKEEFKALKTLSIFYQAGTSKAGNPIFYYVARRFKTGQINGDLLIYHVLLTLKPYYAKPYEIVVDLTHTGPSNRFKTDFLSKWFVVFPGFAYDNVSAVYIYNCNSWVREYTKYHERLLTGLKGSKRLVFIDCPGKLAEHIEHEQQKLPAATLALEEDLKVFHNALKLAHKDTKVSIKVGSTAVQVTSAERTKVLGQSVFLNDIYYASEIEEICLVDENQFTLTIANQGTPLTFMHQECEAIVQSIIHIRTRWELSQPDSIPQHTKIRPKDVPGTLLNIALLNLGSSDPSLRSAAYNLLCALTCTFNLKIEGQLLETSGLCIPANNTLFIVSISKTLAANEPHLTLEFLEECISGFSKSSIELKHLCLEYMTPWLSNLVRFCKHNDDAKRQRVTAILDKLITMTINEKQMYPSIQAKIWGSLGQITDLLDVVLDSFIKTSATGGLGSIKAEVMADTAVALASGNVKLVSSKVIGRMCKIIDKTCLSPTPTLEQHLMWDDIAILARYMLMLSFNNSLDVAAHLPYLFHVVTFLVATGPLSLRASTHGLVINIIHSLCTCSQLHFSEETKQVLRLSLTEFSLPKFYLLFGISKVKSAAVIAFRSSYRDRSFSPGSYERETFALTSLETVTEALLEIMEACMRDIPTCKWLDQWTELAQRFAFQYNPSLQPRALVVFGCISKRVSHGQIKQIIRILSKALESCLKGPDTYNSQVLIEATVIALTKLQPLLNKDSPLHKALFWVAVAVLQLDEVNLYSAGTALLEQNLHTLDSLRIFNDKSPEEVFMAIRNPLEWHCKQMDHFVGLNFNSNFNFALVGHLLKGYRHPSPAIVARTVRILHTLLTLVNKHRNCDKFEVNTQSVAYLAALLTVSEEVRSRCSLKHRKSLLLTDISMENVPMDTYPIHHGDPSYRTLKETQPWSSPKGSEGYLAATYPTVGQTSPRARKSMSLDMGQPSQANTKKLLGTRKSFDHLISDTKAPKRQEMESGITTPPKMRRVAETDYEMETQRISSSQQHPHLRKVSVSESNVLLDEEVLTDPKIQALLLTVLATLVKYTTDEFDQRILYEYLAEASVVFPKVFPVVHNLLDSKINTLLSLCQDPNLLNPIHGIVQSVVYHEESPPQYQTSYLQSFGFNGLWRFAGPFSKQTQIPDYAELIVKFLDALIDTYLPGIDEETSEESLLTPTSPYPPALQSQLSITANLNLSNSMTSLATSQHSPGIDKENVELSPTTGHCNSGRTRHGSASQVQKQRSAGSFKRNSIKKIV
row,Variant,effect of a mutation on the interaction
1,G62R,decreasing interaction strength
2,I116N,decreasing interaction strength
3,R24Q,decreasing interaction strength
4,N10K,with no effect
5,W31C,decreasing interaction strength
6,W31L,disrupting interaction strength
7,D9V,with no effect
8,G30R,decreasing interaction strength
9,L80R,decreasing interaction strength
10,G100D,decreasing interaction strength
11,V42I,with no effect
12,V44D,disrupting interaction strength
13,T102R,decreasing interaction strength
14,T102M,decreasing interaction strength
15,T102K,disrupting interaction strength
16,T88K,disrupting interaction strength
17,W92R,disrupting interaction strength
18,C74F,with no effect

# Variants of: B1
# Details: with nf1_human NF1, P21359
# Remark: another data set of the same source
row,Variant,effect of a mutation on the interaction
1,W31C,disrupting interaction strength
2,G30R,disrupting interaction strength

# Variants of: B1
# Details: with nf1_human NF1, P21359
# Remark: another data set of the same source
row,Variant,effect of a mutation on the interaction
1,T102R,disrupting interaction strength
